How the values were obtained:
DP43 (DCP 33-40 8肽) = target: T1, DP43 (DCP 33-40 8肽) (human); test: competition ELISA: 100ng/ml antibody pre-incubated with 50ug/ml 8-mer peptide, read on coated 抗原1
T1 peptide: SSTATDVF

DP48 (DCP 38-45 8肽) [1] = target: T2, DP48 (DCP 38-45 8肽) (human); test: as above
T2 peptide: DVFWAKYT

DP41 (DCP 31-38 8肽) [2] = target: T3, DP41 (DCP 31-38 8肽) (human); test: as above
T3 peptide: LESSTATD

DP47 (DCP 37-44 8肽) [3] = target: T4, DP47 (DCP 37-44 8肽) (human); test: as above
T4 peptide: TDVFWAKY

DP45 (DCP 35-42 8肽) [4] = target: T5, DP45 (DCP 35-42 8肽) (human); test: as above
T5 peptide: TATDVFWA

DP42 (DCP 32-39 8肽) [5] = target: T6, DP42 (DCP 32-39 8肽) (human); test: as above
T6 peptide: ESSTATDV

DP46 (DCP 36-43 8肽) [6] = target: T7, DP46 (DCP 36-43 8肽) (human); test: as above
T7 peptide: ATDVFWAK

DP44 (DCP 34-41 8肽) = target: T8, DP44 (DCP 34-41 8肽) (human); test: as above
T8 peptide: STATDVFW

DP1 (DCP 1-15 15肽) = target: T9, DP1 (DCP 1-15 15肽) (human); test: peptide competition ELISA on coated 抗原1
T9 peptide: ANTFLEEVRKGNLER

DP2 (DCP 11-25 15肽) = target: T10, DP2 (DCP 11-25 15肽) (human); test: peptide competition ELISA on coated 抗原1
T10 peptide: GNLERECVEETCSYE

DP3 (DCP 21-35 15肽) = target: T11, DP3 (DCP 21-35 15肽) (human); test: peptide competition ELISA on coated 抗原1
T11 peptide: TCSYEEAFEALESST

DP5 (DCP 41-55 15肽) = target: T12, DP5 (DCP 41-55 15肽) (human); test: peptide competition ELISA on coated 抗原1
T12 peptide: WAKYTACETARTPRD

DP48 (DCP 38-45 8肽) [7] = target: T2, DP48 (DCP 38-45 8肽); test: 8-mer peptide competition ELISA on coated 抗原1
DP41 (DCP 31-38 8肽) [8] = target: T3, DP41 (DCP 31-38 8肽); test: 8-mer peptide competition ELISA on coated 抗原1
DP47 (DCP 37-44 8肽) [9] = target: T4, DP47 (DCP 37-44 8肽); test: 8-mer peptide competition ELISA on coated 抗原1
DP45 (DCP 35-42 8肽) [10] = target: T5, DP45 (DCP 35-42 8肽); test: 8-mer peptide competition ELISA on coated 抗原1
DP42 (DCP 32-39 8肽) [11] = target: T6, DP42 (DCP 32-39 8肽); test: 8-mer peptide competition ELISA on coated 抗原1
DP46 (DCP 36-43 8肽) [12] = target: T7, DP46 (DCP 36-43 8肽); test: 8-mer peptide competition ELISA on coated 抗原1
[13] = target: T13, 人异常凝血酶原 (Des-γ-carboxyprothrombin) (human, UniProt P00734 44-622, 第6，7，14，16，19，20，25，26，29和32位的Glu残基一个或多个羧化不全 (not fully gamma-carboxylated)); test: sandwich ELISA, 11H8-3 capture, 10D9-1-HRP detection, DCP in controls and sera
T13 construct: also called DCP; PIVKA-II

B1: 抗人DCP单克隆抗体10D9-1 (antibody, IgG1, V domains shown)
VH: EVQLQQSGPELVKPGASVKMSCKASGYTFTSYVMHWVKQKPGQGLEWIGYIFPYNDVTEYNEKFKGKATLTSDKSSSTAYMELSSLTSEDSAVYYCARWGGRNYWGQGTSVTV
VL: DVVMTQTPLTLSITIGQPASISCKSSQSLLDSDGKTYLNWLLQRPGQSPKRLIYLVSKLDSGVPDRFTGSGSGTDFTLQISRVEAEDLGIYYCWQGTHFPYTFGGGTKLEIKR
notes: also called 抗人异常凝血酶原单克隆抗体; 10D9-1-HRP
- competition rate (对照样品OD值-检测样品OD值)/对照样品OD值 (DP43 (DCP 33-40 8肽)): 33%
- competition rate (对照样品OD值-检测样品OD值)/对照样品OD值 (DP48 (DCP 38-45 8肽) [1]): 10%
- competition rate (对照样品OD值-检测样品OD值)/对照样品OD值 (DP41 (DCP 31-38 8肽) [2]): -2%
- competition rate (对照样品OD值-检测样品OD值)/对照样品OD值 (DP47 (DCP 37-44 8肽) [3]): 11%
- competition rate (对照样品OD值-检测样品OD值)/对照样品OD值 (DP45 (DCP 35-42 8肽) [4]): -9%
- competition rate (对照样品OD值-检测样品OD值)/对照样品OD值 (DP42 (DCP 32-39 8肽) [5]): 10%
- competition rate (对照样品OD值-检测样品OD值)/对照样品OD值 (DP46 (DCP 36-43 8肽) [6]): 4%
- competition rate (对照样品OD值-检测样品OD值)/对照样品OD值 (DP44 (DCP 34-41 8肽)): 29%
- binding result (DP1 (DCP 1-15 15肽)): no binding (tested: 判定标准为:大于90%以上显示有良好的竞争效果; 50ug/ml多肽)
- binding result (DP2 (DCP 11-25 15肽)): no binding (tested: 判定标准为:大于90%以上显示有良好的竞争效果; 50ug/ml多肽)
- binding result (DP3 (DCP 21-35 15肽)): no binding (tested: 判定标准为:大于90%以上显示有良好的竞争效果; 50ug/ml多肽)
- binding result (DP5 (DCP 41-55 15肽)): no binding (tested: 判定标准为:大于90%以上显示有良好的竞争效果; 50ug/ml多肽)
- binding result (DP48 (DCP 38-45 8肽) [7]): no binding (tested: 50ug/ml多肽)
- binding result (DP41 (DCP 31-38 8肽) [8]): no binding (tested: 50ug/ml多肽)
- binding result (DP47 (DCP 37-44 8肽) [9]): no binding (tested: 50ug/ml多肽)
- binding result (DP45 (DCP 35-42 8肽) [10]): no binding (tested: 50ug/ml多肽)
- binding result (DP42 (DCP 32-39 8肽) [11]): no binding (tested: 50ug/ml多肽)
- binding result (DP46 (DCP 36-43 8肽) [12]): no binding (tested: 50ug/ml多肽)
- binding result [13]: binds
